B1: 9D33 MAb (antibody, V domains shown)
VH: DVQIQQPGTELVKPGASVRLSCKASGYTFTTYWMHWVKQRPGQGLEWIGEIDPSDSYTNYNQKFKGKATLTVDKSSSTAYMHLSSLTSEDSAVYYCSRNYGSGYYFDYWGQGTTLTVSS
VL: GVEMTQSPAIMSASPGEKVTMTCSASSSVSYMHWYQQKSGTSPKRWIYDTSKLASGVPARFSGSGSGTSYSLTISSMETEDAATYYCQQWSSNPWTFGGGTKLEIK
B2: TSHR Asp232 to Ala, Arg255 to Ala and Trp258 to Ala (receptor)
chain: GMGCSSPPCECHQEEDFRVTCKDIQRIPSLPPSTQTLKLIETHLRTIPSHAFSNLPNISRIYVSIDVTLQQLESHSFYNLSKVTHIEIRNTRNLTYIDPDALKELPLLKFLGIFNTGLKMFPDLTKVYSTDIFFILEITDNPYMTSIPVNAFQGLCNETLTLKLYNNGFTSVQGYAFNGTKLDAVYLNKNKYLTVIDKDAFGGVYSGPSLLAVSQTSVTALPSKGLEHLKELIAANTATLKKLPLSLSFLHLTRADLSYPSHCCAFKNQKKIRGILESLMCNESSMQSLRQRKSVNALNSPLHQEYEENLGDSIVGYKEKSKFQDTHNNAHYYVFFEEQEDEIIGFGQELKNPQEETLQAFDSHYDYTICGDSEDMVCTPKSDEFNPCEDIMGYKFLRIVVWFVSLLALLGNVFVLLILLTSHYKLNVPRFLMCNLAFADFCMGMYLLLIASVDLYTHSEYYNHAIDWQTGPGCNTAGFFTVFASELSVYTLTVITLERWYAITFAMRLDRKIRLRHACAIMVGGWVCCFLLALLPLVGISSYAKVSICLPMDTETPLALAYIVFVLTLNIVAFVIVCCCYVKIYITVRNPQYNPGDKDTKIAKRMAVLIFTDFICMAPISFYALSAILNKPLITVSNSKILLVLFYPLNSCANPFLYAIFTKAFQRDVFILLSKFGICKRQAQAYRGQRVPPKNSTDIQVQKVTHEMRQGLHNMEDVYELIENSHLTPKKQGQISEEYMQTVL
notes: whole, on cells; as m1
B3: TSHR Arg255 to Ala, Trp258 to Ala and Tyr185 to Ala (receptor)
chain: B2 chain with Y165A, A212D
notes: whole, on cells; as m1
B4: TSHR Arg255 to Ala, Lys183 to Ala and Tyr185 to Ala (receptor)
chain: B2 chain with K163A, Y165A, A212D, A238W
notes: whole, on cells; as m1
B5: TSHR Arg255 to Ala, Trp258 to Ala, Tyr185 to Ala and Lys183 to Ala (receptor)
chain: B2 chain with K163A, Y165A, A212D
notes: whole, on cells; as m1
B6: TSHR Trp258 to Ala, Lys183 to Ala and Tyr185 to Ala (receptor)
chain: B2 chain with K163A, Y165A, A212D, A235R
notes: whole, on cells; as m1

Holding throughout (assay): Scatchard, 125I-ligand, solubilised TSHR on tubes
The target in assay [1] is T1, TSHR Arg255 to Ala and Trp258 to Ala (human, UniProt P16473 21-764).
T1 construct: whole, on cells; as m1
The method, then: (§1) Firstly, dilution profiles of each TSHR preparation were set up. In these experiments, plastic tubes (Maxisorp Star; NUNC) were coated overnight at 4° C. with 200 µL of a mouse monoclonal antibody to the TSHR C-terminus at 10 µg/mL in coating buffer (0.1 mmol/L Na_2CO$_3$ pH 9.2). After washing and post-coating (10 mg/mL of BSA in water) the tubes were washed with assay buffer (10 mmol/L Tris-HCl pH 7.8, 50 mmol/L NaCl and 1 mg/mL BSA) containing 0.1% Triton X-100. In the next step, 200 µL of solubilized wild type or mutated TSHR preparations were added to the tubes and incubated overnight at 4 C. […] After aspiration of the solutions, the tubes were washed and counted in a gamma counter.

For assay [2], the target named is T2, TSHR Glu251 to Ala (human, UniProt P16473 21-764).
T2 construct: whole, on cells; as m1
The method, then:
as §1

Assay [3] addresses T3, TSHR Phe130 to Ala (human, UniProt P16473 21-764).
T3 construct: whole, on cells; as m1
The method, then: as §1

Assay [4] deals with T4, TSHR Glu178 to Ala (human, UniProt P16473 21-764).
T4 construct: whole, on cells; as m1; also called Glu178 mutated to Ala
The method, then:
as §1

Assay [5] has as its target T5, TSHR Trp258 to Ala (human, UniProt P16473 21-764).
T5 construct: whole, on cells; as m1; also called Trp258 mutated to Ala
As for the experimental part: as §1

Assay [6] deals with T6, TSHR Asp203 to Ala (human, UniProt P16473 21-764).
T6 construct: whole, on cells; as m1; also called Asp203 mutated to Ala
The method, then:
as §1

The target in assay [7] is T7, TSHR Glu107 to Ala (human, UniProt P16473 21-764).
T7 construct: whole, on cells; as m1
The method, then: as §1

Assay [8] deals with T8, TSHR Asp160 to Ala (human, UniProt P16473 21-764).
T8 construct: whole, on cells; as m1
The method, then: as §1

The target of assay [9] is T9, TSHR Tyr185 to Ala (human, UniProt P16473 21-764).
T9 construct: whole, on cells; as m1
The method, then:
as §1

Assay [10] has as its target T10, TSHR Tyr279 to Ala (human, UniProt P16473 21-764).
T10 construct: whole, on cells; as m1
As for the experimental part: as §1

The target in assay [11] is T11, TSHR Asp276 to Ala (human, UniProt P16473 21-764).
T11 construct: whole, on cells; as m1; also called Asp276 mutated to Ala
As for the experimental part: as §1

Assay [12] addresses T12, TSHR Glu157 to Ala (human, UniProt P16473 21-764).
T12 construct: whole, on cells; as m1; also called Glu157 mutated to Ala
As for the experimental part:
as §1

The target of assay [13] is T13, TSHR Arg255 to Ala (human, UniProt P16473 21-764).
T13 construct: whole, on cells; as m1; also called Arg255 mutated to Ala
The method, then:
as §1

Assay [14] concerns the target T14, TSHR Gln235 to Ala (human, UniProt P16473 21-764).
T14 construct: whole, on cells; as m1
As for the experimental part: as §1

Assay [15] concerns the target T15, TSHR Thr257 to Ala (human, UniProt P16473 21-764).
T15 construct: whole, on cells; as m1
The method, then: as §1

Assay [16] deals with T16, TSHR Lys250 to Ala (human, UniProt P16473 21-764).
T16 construct: whole, on cells; as m1
The method, then: as §1

In assay [17] the target is T17, TSHR Ser281 to Ala (human, UniProt P16473 21-764).
T17 construct: whole, on cells; as m1; also called Ser281 mutated to Ala
The method, then: as §1

Assay [18] concerns the target T18, TSHR Lys209 to Ala (human, UniProt P16473 21-764).
T18 construct: whole, on cells; as m1
The method, then:
as §1

Assay [19] deals with T19, TSHR Asp43 to Ala (human, UniProt P16473 21-764).
T19 construct: whole, on cells; as m1; also called Asp43 mutated to Ala
The method, then:
as §1

Assay [20] addresses T20, human thyrotropin receptor (TSHR), wild type, full length (human, UniProt P16473 21-764).
T20 construct: whole, on cells; Full length cDNA in pcDNA5.1/FRT, stably expressed in Flp-In-CHO cells; Cyclic AMP assays: on the cells; also called TSH receptor; Wild type TSHR
As for the experimental part: as §1

The target of assay [21] is T21, TSHR Phe134 to Ala (human, UniProt P16473 21-764).
T21 construct: whole, on cells; as m1
As for the experimental part:
as §1

The target in assay [22] is T22, TSHR Arg255 to Asp (human, UniProt P16473 21-764).
T22 construct: whole, on cells; as m1; also called TSHR with Arg255 mutated to Asp; Arg255 Asp mutation
The method, then:
as §1

In assay [23] the target is T23, TSHR Arg274 to Ala (human, UniProt P16473 21-764).
T23 construct: whole, on cells; as m1
As for the experimental part: as §1

Assay [24] has as its target T24, TSHR Glu61 to Ala (human, UniProt P16473 21-764).
T24 construct: whole, on cells; as m1; also called Glu61 mutated to Ala
The method, then: as §1

In assay [25] the target is B3.
The target in assay [26] is T25, TSHR Glu178 to Ala and Asp203 to Ala (human, UniProt P16473 21-764).
T25 construct: whole, on cells; as m1

Assay [27] addresses T26, TSHR Glu157 to Ala and Asp203 to Ala (human, UniProt P16473 21-764).
T26 construct: whole, on cells; as m1

For assay [28], the target named is T27, TSHR Trp258 to Ala and Tyr185 to Ala (human, UniProt P16473 21-764).
T27 construct: whole, on cells; as m1

Assay [29] addresses T20, human thyrotropin receptor (TSHR), wild …. The source holds these as a separate data set.
In assay [30] the target is B4.
For assay [31], the target named is T28, TSHR Tyr185 to Ala and Lys183 to Ala (human, UniProt P16473 21-764).
T28 construct: whole, on cells; as m1

Assay [32] concerns the target T29, TSHR Arg255 to Ala and Tyr185 to Ala (human, UniProt P16473 21-764).
T29 construct: whole, on cells; as m1

For assay [33], the target named is porcine TSH (RSR Ltd, 70 units per mg) (porcine, UniProt P01219 25-120; P01224 21-132).

Six molecules from US9046519 (RSR, dated 2015) can be followed below.

Positions count from the first letter of the chain named. Read-outs that look alike come from different tables or passages of the source.

Turning to B1, the Ka in [1] was found to be 1.1e+10 M⁻¹; in assay [2], 8e+09 M⁻¹; in assay [3], 9e+09 M⁻¹; in assay [4] it was 1.3e+10 M⁻¹; in assay [5], 1.2e+10 M⁻¹; in assay [6] it was 1.4e+10 M⁻¹. Also, the Ka in assay [7] was 6e+09 M⁻¹; in assay [8] it was 1e+10 M⁻¹; in assay [9], 9e+09 M⁻¹; in [10], 6e+09 M⁻¹; in assay [11], 1.3e+10 M⁻¹; in assay [12] it was 1.3e+10 M⁻¹. For the same molecule, the Ka was found to be 8e+09 M⁻¹ in assay [13]; 1.1e+10 M⁻¹ in assay [14]; 7e+09 M⁻¹ in [15]; 6e+09 M⁻¹ in assay [16]; 9e+09 M⁻¹ in [17]; 8e+09 M⁻¹ in assay [18]. The Ka in assay [19] was 1.4e+10 M⁻¹; in assay [20], 1.8e+10 M⁻¹; in assay [21], 5e+09 M⁻¹; in [22] it was 1.3e+10 M⁻¹; in assay [23], 5e+09 M⁻¹; in assay [24], 9e+09 M⁻¹. The Ka in [25] was 8e+09 M⁻¹; in [26] it was 8e+09 M⁻¹; in assay [27] it was 6e+09 M⁻¹; in assay [28] it was 9e+09 M⁻¹; in assay [29], 1.8e+10 M⁻¹; in assay [30] it was 3e+09 M⁻¹. Besides, the Ka in assay [31] turned out to be 6e+09 M⁻¹; in assay [32], 9e+09 M⁻¹.

In the case of B2, the binding result in [33] is given as “no binding”.

Turning to B3, the binding result in assay [33] is on record as “no binding”.

In the case of B4, the binding result in assay [33] was “no binding”.

With B5, the binding result in [33] is reported as “no binding”.

Consider B6, for which the binding result in [33] is given as “no binding”.
